The target of this experiment is Recombinant Aβ1-42 (rAβ1-42 peptides) in the Thioflavin T fibril formation assay (UniProt P05067). Briefly: cell-based or functional assay.
Chain of Recombinant Aβ1-42 (rAβ1-42 peptides) in the Thioflavin T fibril formation assay (P05067 672-713 limits assumed): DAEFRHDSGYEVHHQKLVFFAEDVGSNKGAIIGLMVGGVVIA

For “control anti-rhodopsin 1D4 antibody (Abcam)”, the T50 (time in minutes for 50% inhibition of fibril formation) was determined as 25.9 min.

The values above are taken from patent publication US20160251419A1.
